The values that follow come from article PMC3168117 (Nature structural & molecular biology, 2011).

This data set deals with the molecule itself. The data set can be described thus: SEC-MALS. A general note: Size exclusion chromatography separates by hydrodynamic size, large species first.

B1: VopL W3-C (residues 115-484: three WH2 motifs and the VCD) (domain or fragment, Vibrio parahaemolyticus, UniProt Q87GE5 115-484, looked up)
chain: NLSKGAPKSSSNSLDSVNEDHSKLMEQIRQGVKLKSATKSLSADKSSADAHSKLMEELLTGGRKLKKVATSDIPAPPPLPSASTSKSPDSRNALLSEIAGFSKDRLRKTGSLETLNSSQSKDKESFEPTTHERLLSEDLFKQSPKLSEQELDELANNLADYLFQAADIDWHQVISEKTRGLTTEEMAKSEHRYVQAFCREILKYPDCYKSADVASPESPKSGGGSVIDVALKRLQTGRERLFTTTDEKGNRELKKGDAILESAINAARMAISTEEKNTILSNNVKSATFEVFCELPCMDGFAEQNGKTAFYALRAGFYSAFKNTDTAKQDITKFMKDNLQAGFSGYSYQGLTNRVAQLEAQLAALSAKLS
The stoichiometry N is a count of units in the complex or per binding partner. Consider B1, for which the “stoichiometry N” value amounted to 2.
